Assay results: publication PMC6891851 (ACS Central Science, 2019)
Square brackets hold non-standard residues; d marks the D form.

Biological target: the molecule itself
Assay: hydrogelation with CD, TEM and rheology

B1: AcVES3 peptide hydrogel (peptide)
peptide: Ac-VEVSVSVEV[dP]PTEVSVEVEV-NH2
SMILES: CC(=O)N[C@H](C(=O)N[C@@H](CCC(=O)O)C(=O)N[C@H](C(=O)N[C@@H](CO)C(=O)N[C@H](C(=O)N[C@@H](CO)C(=O)N[C@H](C(=O)N[C@@H](CCC(=O)O)C(=O)N[C@H](C(=O)N1CCC[C@@H]1C(=O)N1CCC[C@H]1C(=O)N[C@H](C(=O)N[C@@H](CCC(=O)O)C(=O)N[C@H](C(=O)N[C@@H](CO)C(=O)N[C@H](C(=O)N[C@@H](CCC(=O)O)C(=O)N[C@H](C(=O)N[C@@H](CCC(=O)O)C(=O)N[C@H](C(N)=O)C(C)C)C(C)C)C(C)C)C(C)C)[C@@H](C)O)C(C)C)C(C)C)C(C)C)C(C)C)C(C)C
  binding result: binds
